Data: patent publication KR20220090395A (dated 2022)
Residue numbers refer to the chain shown, from its start. Read-outs that look alike come from different tables or passages of the source.

Tests used:
[1] = molecular target: T1, SARS-CoV-2 RBD (Biotinylated SARS-CoV-2 RBD, Acrobio 시스템) (SARS-CoV-2, UniProt P0DTC2 319-537)
[2] = molecular target: SARS-CoV-1 RBD (SARS-CoV-1, UniProt P59594 306-527); test: binding measurement of Fig. 20; method not given
[3] = molecular target: T1, SARS-CoV-2 RBD (Biotinylated SARS-CoV-2 …); test: BLI; IgG1 made in CHO cells

B1: D27 항체 (designed full-length antibody D27) (antibody, V domains shown)
VH: QVQLQQSGAEVKKPGSSVKVSCKASGGTFGNWSISWVRQAPGQGLEWMGGIDPSRGEATYAQKFQGRVTITTDESTSTAYMELSSLRSEDTAVYYCARETEQGGMDVWGQGTTVTVSS
VL: SYELTQPPSVSVAPGKTARITCGGNNIGRKSVHWYQQKPGQAPVLVVYDDSDRPSGIPERFSGSNSGNTATLTISRVEAGDEADYYCQVYDLFSDYVFGTGTKVEIK
[1]
  Kd: 175 nM

B2: D27LEY (IgG1 형태) (antibody, V domains shown)
VH: QVQLQQSGAEVKKPGSSVKVSCKASGGTFGNWSISWVRQAPGQGLEWMGGIAPGRGEATYAQKFQGRVTITTDESTSTAYMELSSLRSEDTAVYYCARETWYTSGGMDVWGQGTTVTVSS
VL: SYELTQPPSVSVAPGKTARITCGGNNIGRKSVHWYQQKPGQAPVLVVYDDSDRPSGIPERFSGSNSGNTATLTISRVEAGDEADYYCQVYDLWSSDYVFGTGTKVTVL
[2]
  Kd: < 0.001 nM

B3: D27LE (IgG1 형태) (antibody, V domains shown)
VH: B2 VH with A52D, G54S
VL: B2 VL
[3]
  Kd: 7.1 nM
